Data reported in patent publication US20160053014A1.

Biological target: human CXCR5 (human) (UniProt P32302)
Test: cell-based or functional assay

Sequence of human CXCR5 (human) (P32302 whole entry): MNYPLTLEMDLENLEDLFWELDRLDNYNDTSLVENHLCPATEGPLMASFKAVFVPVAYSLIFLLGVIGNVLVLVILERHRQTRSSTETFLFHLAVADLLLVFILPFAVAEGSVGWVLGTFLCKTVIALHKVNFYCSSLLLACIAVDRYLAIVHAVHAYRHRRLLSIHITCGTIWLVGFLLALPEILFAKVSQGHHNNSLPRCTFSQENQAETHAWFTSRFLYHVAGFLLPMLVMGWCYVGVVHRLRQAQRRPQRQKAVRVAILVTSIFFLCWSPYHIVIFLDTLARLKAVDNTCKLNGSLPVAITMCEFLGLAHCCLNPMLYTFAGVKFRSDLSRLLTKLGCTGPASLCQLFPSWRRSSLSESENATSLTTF

IC50 [nM] of mAbs in chemotaxis assay using HS-Sultan cells (25 nM CXCL13): 4.7 nM
B1: SAR113244 (antibody, from another filing, V domains shown)
VH: QVQLKESGPGLVAPSESLSITCTVSGFSLIDYGVNWIRQPPGKGLEWLGVIWGDGTTYYNPSLKSRLSISKDNSKSQVFLKVTSLTTDDTAMYYCARIVYWGQGTLVTVSA
VL: DIVMTQAAPSVAVTPGASVSISCRSSKSLLHSSGKTYLYWFLQRPGQSPQLLIYRLSSLASGVPDRFSGSGSGTAFTLRISRVEAEDVGVYYCMQHLEYPYTFGGGTKLEIKR
